What was measured:
Test in all cases: SEC; cleared, microfiltered serum-containing supernatant of transfected Bosc23 cells; Superdex 200 10/300 GL in PBS at 4°C; fractions TCA precipitated and immunoblotted with α-Shh or α-StrepII antibodies; total eluted protein set to 100%, monomeric (< 80 kDa) versus multimeric (> 80 kDa)
[1] = target: Shh^HA, Shh with an HA tag inserted into the C-terminal peptide (Mus musculus)
[2] = target: ^HAShh^HA, Shh with HA tags in both terminal peptides (Mus musculus)
[3] = target: Shh^Strep, Shh with a StrepII tag inserted into the C-terminal peptide (Mus musculus)
[4] = target: Sonic hedgehog (Shh), untagged (Mus musculus)

“Shh^HA, Shh with an HA tag inserted into the C-terminal peptide (ligand)” was tested, and the percent of eluted protein < 80 kDa (monomeric) [1] was 65%.
With “^HAShh^HA, Shh with HA tags in both terminal peptides (ligand)” the percent of eluted protein < 80 kDa (monomeric) [2] was 56%.
“Shh^Strep, Shh with a StrepII tag inserted into the C-terminal peptide (ligand)” showed a percent of eluted protein < 80 kDa (monomeric) [3] of 80%.
Work on Sonic hedgehog (Shh), untagged (ligand) yielded a percent of eluted protein < 80 kDa (monomeric) [4] of 15%.

From paper PMC7835520
